We go through 3 sequences from the supplement of paper PMC6379048.

Common to all, as to experiment: EC50 of free RNA motif oligo competing protein binding to immobilised probe
Data set [1] addresses T1, PARP12 (UniProt Q9H0J9).
T1 sequence: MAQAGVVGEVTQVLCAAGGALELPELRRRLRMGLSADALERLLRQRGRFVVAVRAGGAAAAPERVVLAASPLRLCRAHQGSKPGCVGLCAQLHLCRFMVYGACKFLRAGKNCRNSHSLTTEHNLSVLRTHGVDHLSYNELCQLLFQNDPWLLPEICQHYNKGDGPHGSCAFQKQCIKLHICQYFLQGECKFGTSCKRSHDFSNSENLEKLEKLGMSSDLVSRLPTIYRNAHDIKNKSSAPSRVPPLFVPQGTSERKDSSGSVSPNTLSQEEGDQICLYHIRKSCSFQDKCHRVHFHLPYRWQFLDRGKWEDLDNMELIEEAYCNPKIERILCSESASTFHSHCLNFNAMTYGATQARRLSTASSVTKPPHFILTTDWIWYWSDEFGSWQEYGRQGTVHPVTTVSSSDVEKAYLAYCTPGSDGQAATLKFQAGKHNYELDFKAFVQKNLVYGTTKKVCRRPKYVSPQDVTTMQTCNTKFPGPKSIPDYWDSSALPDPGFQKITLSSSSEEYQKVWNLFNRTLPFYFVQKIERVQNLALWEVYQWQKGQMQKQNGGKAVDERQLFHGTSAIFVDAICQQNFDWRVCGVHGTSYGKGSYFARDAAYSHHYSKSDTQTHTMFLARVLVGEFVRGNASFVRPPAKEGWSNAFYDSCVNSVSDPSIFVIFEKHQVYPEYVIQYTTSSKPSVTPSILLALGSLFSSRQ
The method, boiled down:
(§1)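 HEK293-FT lysate (2.5 mg protein/well) was treated with free RNA oligos (0 nM to 30 μM) for 1 h at 4°C, then with the same oligos on NHS-Sepharose beads for 30 min at 4°C. Bound proteins were quantified by label-free LC-MS/MS relative to the control. EC50 came from a four-parameter log-logistic fit, and Kd is EC50 times a protein-dependent depletion factor.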

Data set [2] concerns the target T2, SF3B3 (UniProt Q15393).
T2 sequence: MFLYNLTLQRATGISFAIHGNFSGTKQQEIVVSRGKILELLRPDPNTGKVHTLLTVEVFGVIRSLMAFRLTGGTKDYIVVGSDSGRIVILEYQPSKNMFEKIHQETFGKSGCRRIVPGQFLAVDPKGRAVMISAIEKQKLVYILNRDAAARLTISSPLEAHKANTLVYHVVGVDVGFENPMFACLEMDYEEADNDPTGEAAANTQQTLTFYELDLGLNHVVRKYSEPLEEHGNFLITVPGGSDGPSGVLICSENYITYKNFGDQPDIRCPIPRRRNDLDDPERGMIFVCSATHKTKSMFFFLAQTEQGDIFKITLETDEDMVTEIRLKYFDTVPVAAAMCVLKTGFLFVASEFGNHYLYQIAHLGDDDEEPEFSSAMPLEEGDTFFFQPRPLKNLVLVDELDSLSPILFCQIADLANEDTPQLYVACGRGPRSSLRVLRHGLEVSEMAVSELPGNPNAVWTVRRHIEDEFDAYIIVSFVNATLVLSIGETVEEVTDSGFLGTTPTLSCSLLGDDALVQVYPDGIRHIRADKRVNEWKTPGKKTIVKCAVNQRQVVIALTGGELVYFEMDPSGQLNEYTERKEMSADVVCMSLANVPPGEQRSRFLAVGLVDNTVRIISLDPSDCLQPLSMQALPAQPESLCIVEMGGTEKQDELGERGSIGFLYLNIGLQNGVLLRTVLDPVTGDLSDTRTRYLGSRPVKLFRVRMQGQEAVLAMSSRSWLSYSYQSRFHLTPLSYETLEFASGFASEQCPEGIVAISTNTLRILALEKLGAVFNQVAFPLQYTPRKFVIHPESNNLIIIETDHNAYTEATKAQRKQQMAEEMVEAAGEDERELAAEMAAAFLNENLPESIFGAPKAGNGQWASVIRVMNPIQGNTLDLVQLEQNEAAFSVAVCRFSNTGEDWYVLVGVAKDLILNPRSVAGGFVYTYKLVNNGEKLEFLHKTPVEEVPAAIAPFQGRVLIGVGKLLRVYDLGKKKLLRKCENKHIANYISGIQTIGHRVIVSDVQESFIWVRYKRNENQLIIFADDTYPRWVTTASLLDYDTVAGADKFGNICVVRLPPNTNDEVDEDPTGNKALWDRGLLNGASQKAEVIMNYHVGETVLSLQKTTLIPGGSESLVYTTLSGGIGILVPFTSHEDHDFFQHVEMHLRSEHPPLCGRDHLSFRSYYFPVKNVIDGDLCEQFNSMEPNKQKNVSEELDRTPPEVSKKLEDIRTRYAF
The method, boiled down:
as §1

Data set [3] deals with T3, IFIT5 (UniProt Q13325).
T3 sequence: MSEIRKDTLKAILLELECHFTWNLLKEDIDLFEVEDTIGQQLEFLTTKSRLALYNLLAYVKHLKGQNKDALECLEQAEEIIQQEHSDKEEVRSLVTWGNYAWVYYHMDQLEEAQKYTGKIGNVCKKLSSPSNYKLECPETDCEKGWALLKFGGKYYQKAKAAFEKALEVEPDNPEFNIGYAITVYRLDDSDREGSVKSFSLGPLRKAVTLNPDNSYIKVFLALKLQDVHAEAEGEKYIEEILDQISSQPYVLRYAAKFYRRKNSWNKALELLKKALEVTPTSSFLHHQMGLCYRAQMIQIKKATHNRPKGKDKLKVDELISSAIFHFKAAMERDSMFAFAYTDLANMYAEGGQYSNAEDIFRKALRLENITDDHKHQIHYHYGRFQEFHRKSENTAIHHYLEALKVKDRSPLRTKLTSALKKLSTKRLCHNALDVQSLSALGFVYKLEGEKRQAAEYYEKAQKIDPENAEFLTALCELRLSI
The method, boiled down: as §1

Data set [4] has as its target P4HB (UniProt P07237). The method, boiled down:
as §1

The target of data set [5] is RPS17 (UniProt P08708). The method, boiled down: as §1
In data set [6] the target is MRPL50 (UniProt Q8N5N7). The method, boiled down: as §1
The target in data set [7] is HNRNPA1 (UniProt P09651). The method, boiled down: as §1
Sequence of HNRNPA1 (P09651 whole entry): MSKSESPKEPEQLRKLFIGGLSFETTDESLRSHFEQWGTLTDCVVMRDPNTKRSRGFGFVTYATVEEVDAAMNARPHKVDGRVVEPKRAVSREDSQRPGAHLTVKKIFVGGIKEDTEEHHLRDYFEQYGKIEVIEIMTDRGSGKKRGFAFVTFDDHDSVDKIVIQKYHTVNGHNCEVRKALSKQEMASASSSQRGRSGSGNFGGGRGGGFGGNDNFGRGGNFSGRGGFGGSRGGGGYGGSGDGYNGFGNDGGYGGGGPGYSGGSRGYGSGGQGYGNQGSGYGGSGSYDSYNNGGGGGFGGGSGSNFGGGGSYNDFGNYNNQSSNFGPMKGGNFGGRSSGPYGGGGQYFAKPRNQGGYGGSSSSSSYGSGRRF

Sequence of P4HB (P07237 whole entry, looked up): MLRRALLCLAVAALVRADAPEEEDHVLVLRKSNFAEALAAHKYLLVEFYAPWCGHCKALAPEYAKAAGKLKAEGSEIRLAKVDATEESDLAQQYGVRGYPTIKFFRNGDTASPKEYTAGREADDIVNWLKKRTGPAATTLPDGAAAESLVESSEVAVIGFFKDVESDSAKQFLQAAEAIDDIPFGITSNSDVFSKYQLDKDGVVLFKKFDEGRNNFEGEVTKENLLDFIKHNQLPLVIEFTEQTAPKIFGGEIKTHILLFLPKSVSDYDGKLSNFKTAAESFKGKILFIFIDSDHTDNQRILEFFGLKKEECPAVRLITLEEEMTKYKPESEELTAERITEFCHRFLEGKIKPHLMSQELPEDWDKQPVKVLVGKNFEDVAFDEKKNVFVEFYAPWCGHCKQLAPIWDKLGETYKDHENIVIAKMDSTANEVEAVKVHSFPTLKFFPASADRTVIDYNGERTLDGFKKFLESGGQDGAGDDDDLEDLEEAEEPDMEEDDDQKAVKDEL

Take AAUAAA: the EC50 in data set [1] came out at 11200 nM; in data set [2] it was 4880 nM; in data set [3], 1190 nM; in data set [4], 40.4 nM; in data set [5], 128 nM.
CUGUCCU returned a concentration for a half-maximal effect (EC50) in data set [6] of 244 nM.
The sequence UAUUUAU displayed an EC50 in data set [7] of 2950 nM.
